Assay results published in US20220033515A1 (Genentech, published 2022).
Changes are numbered by the printed parent chain.

Tests used:
[1] = biological target: T1, hVEGF165 (human, UniProt P15692-4 27-191); experiment: ELISA on immobilised target
T1 construct: also called human VEGF165

[2] = biological target: T2, murine VEGF (mVEGF) (murine, UniProt Q00731-2 27-190); experiment: ELISA on immobilised target
T2 sequence (looked up): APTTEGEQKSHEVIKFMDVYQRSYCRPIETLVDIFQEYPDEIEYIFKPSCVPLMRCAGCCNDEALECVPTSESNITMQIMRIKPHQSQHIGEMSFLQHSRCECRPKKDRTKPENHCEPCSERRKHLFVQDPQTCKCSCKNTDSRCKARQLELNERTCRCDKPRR

[3] = biological target: T3, hVEGF109 (human, UniProt P15692 214-315); experiment: ELISA on immobilised target
T3 construct: range 8-109; also called VEGF (8-109)
T3 sequence (looked up): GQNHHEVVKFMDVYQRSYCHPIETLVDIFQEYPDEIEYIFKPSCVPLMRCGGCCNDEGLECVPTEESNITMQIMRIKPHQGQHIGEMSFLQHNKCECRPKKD

[4] = biological target: bovine serum albumin (BSA) (bovine, UniProt P02769 25-607); experiment: ELISA on immobilised protein
[5] = biological target: T4, human vascular endothelial growth factor (hVEGF) (human, UniProt P15692-4 27-191); experiment: ELISA on immobilised protein
T4 construct: also called hVEGF-A; human vascular endothelial growth factor A

[6] = biological target: T5, hVEGF-C (human, UniProt P49767 103-227); experiment: ELISA on immobilised protein
T5 sequence (looked up): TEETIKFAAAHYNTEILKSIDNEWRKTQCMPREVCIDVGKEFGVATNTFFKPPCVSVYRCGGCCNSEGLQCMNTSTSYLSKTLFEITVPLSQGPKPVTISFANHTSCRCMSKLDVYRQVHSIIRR

[7] = biological target: T6, hVEGF-D (human, UniProt O43915 93-201); experiment: ELISA on immobilised protein
T6 sequence (looked up): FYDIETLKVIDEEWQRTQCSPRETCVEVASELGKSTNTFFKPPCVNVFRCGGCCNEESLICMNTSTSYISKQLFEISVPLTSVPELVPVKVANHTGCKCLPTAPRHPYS

[8] = biological target: T7, epidermal growth factor receptor extracellular domain (hEGFR) (human, UniProt P00533 25-645); experiment: ELISA on immobilised protein
T7 construct: extracellular domain

[9] = biological target: T8, human death receptor 5 (hDR5) (human, UniProt O14763 56-210); experiment: equilibrium KD; method and format (Fab or IgG) not given
T8 construct: also called DR5 long; hDR5-1f

[10] = biological target: T9, HER2 extracellular domain (Her2-ECD) (human, UniProt P04626 23-652); experiment: single-spot competitive phage ELISA
T9 construct: extracellular domain; also called hHER2 extracellular domain (ECD)

[11] = biological target: T3, hVEGF109; experiment: single-spot competitive phage ELISA
[12] = biological target: T9, HER2 extracellular domain (Her2-ECD); experiment: equilibrium KD; method and format (Fab or IgG) not given; HER2, second number of the cell
[13] = biological target: T9, HER2 extracellular domain (Her2-ECD); experiment: Biacore SPR
[14] = biological target: T3, hVEGF109; experiment: Biacore SPR
[15] = biological target: T9, HER2 extracellular domain (Her2-ECD); experiment: competition ELISA of phage-displayed Fab

B1: D1 hIgG (antibody, V domains shown)
VH: not shown
VL: DIQMTQSPSSLSASVGDRVTITCRASQNVSKHVAWYQQKPGKAPKLLIYWGSYLYSGVPSRFSGSGSGTDFTLTISSLQPEDFATYYCQQSYSGPPTFGQGTKVEIKR
notes: also called bD1 IgG; D1 (anti-hDR5/Her2); not shown: rest of the human IgG heavy chain constant region
- binding result [1]: no binding (tested: 100 nM (text))
- binding result [2]: no binding (tested: 100 nM (text))
- binding result [3]: no binding (tested: 100 nM (text))
- binding result [4]: no binding (tested: 100 or 500 nM (text))
- binding result [5]: no binding (tested: 100 or 500 nM (text))
- binding result [6]: no binding (tested: 100 or 500 nM (text))
- binding result [7]: no binding (tested: 100 or 500 nM (text))
- binding result [8]: no binding (tested: 100 or 500 nM (text))

B2: 4-5 (antibody, V domains shown)
VH: not shown
VL: DIQMTQSPSSLSASVGDRVTITCRASQNVGRPVAWYQQKPGKAPKLLIYGGSSLYSGVPSRFSGSGSGTDFTLTISSLQPEDFATYYCQQYGSFGTPPTFGQGTKVEIKR
- Kd [9]: 150 nM

B3: bD2 IgG (antibody, V domains shown)
VH: not shown
VL: DIQMTQSPSSLSASVGDRVTITCRASQNIRNGGGLAWYQQKPGKAPKLLIYSASFLYSGVPSRFSGSGSGTDFTLTISSLQPEDFATYYCQQHYTTPPTFGQGTKVEIKR
notes: not shown: rest of the human IgG heavy chain constant region
- binding result [1]: no binding (tested: 100 nM (text))
- binding result [2]: no binding (tested: 100 nM (text))
- binding result [3]: no binding (tested: 100 nM (text))
- binding result [4]: no binding (tested: 100 or 500 nM (text))
- binding result [5]: no binding (tested: 100 or 500 nM (text))
- binding result [6]: no binding (tested: 100 or 500 nM (text))
- binding result [7]: no binding (tested: 100 or 500 nM (text))
- binding result [8]: no binding (tested: 100 or 500 nM (text))

B4: clone 67 (lower block) (scFv, V domains shown)
VH: not shown
VL: DIQMTQSPSSLSASVGDRVTITCRASQDIWRWLAWYQQKPGKAPKLLIYAGSSLYSGVPSRFSGSGSGTDFTLTISSLQPEDFATYYCQQHDQAPPTFGQGTKVEIK
- OD450 without competitor [10]: 0.05
- % signal, SSC +/- 50 or 100nM VEGF [11]: 85.8%
- OD450 without competitor [11]: 1.05

B5: bH4 (antibody, V domains shown)
VH: not shown
VL: DIQMTQSPSSLSASVGDRVTITCRASQDIRSGSVAWYQQKPGKAPKLLIYWGSYLYSGVPSRFSGSGSGTDFTLTISSLQPEDFATYYCQQHYTTPPTFGQGTKVEIKR
- Kd [12]: 11 nM

B6: H3 Fab (Fab, V domains shown)
VH: not shown
VL: B5 VL with R30G, S31L, G52A
notes: also called bH3 Fab
- Kd [13]: 8 nM
- Kd [14]: 3930 nM

B7: clone 75 (scFv, V domains shown)
VH: not shown
VL: DIQMTQSPSSLSASVGDRVTITCRASQDIPSIYVAWYQQKPGKAPKLLIYGASYLYSGVPSRFSGSGSGTDFTLTISSLQPEDFATYYCQQRYWVAPPTFGQGTKVEIK
- OD450 without competitor [10]: 0.07
- % signal, SSC +/- 50 or 100nM VEGF [11]: 85.1%
- OD450 without competitor [11]: 2.9

B8: 3-3 (scFv, V domains shown)
VH: not shown
VL: DIQMTQSPSSLSASVGDRVTITCRASQQIWRHLAWYQQKPGKAPKLLIYTGSSLYSGVPSRFSGSGSGTDFTLTISSLQPEDFATYYCQQSYWVAPPTFGQGTKVEIK
notes: also called c3-3
- OD450 without competitor [10]: 0.05

B9: clone 6 (scFv, V domains shown)
VH: not shown
VL: B8 VL with Q28D, H32A, L33V, T50P, G51A, S53N, S91G, W93Y, V94I
- OD450 without competitor [10]: 0.04
- % signal, SSC +/- 50 or 100nM VEGF [11]: 85.6%
- OD450 without competitor [11]: 2.12

B10: H6 (scFv, V domains shown)
VH: not shown
VL: B8 VL with Q28Y, R31N, H32Y, L33V, T50G, Y92W, V94A, A95G
- OD450 without competitor [10]: 0.05

B11: clone 12 (scFv, V domains shown)
VH: not shown
VL: DIQMTQSPSSLSASVGDRVTITCRASQDIGGGSVAWYQQKPGKAPKLLIYWGSFLYSGVPSRFSGSGSGTDFTLTISSLQPEDFATYYCQQHYTTPPTFGQGTKVEIK
- OD450 without competitor [10]: 0.04
- % signal, SSC +/- 50 or 100nM VEGF [11]: 81.3%
- OD450 without competitor [11]: 2.23

B12: clone 27 (scFv, V domains shown)
VH: not shown
VL: DIQMTQSPSSLSASVGDRVTITCRASQYVYSTTVAWYQQKPGKAPKLLIYNGSSLYSGVPSRFSGSGSGTDFTLTISSLQPEDFATYYCQQASSAPPTFGQGTKVEIK
- OD450 without competitor [10]: 0.04
- % signal, SSC +/- 50 or 100nM VEGF [11]: 95.7%
- OD450 without competitor [11]: 2.82

B13: clone 45 (scFv, V domains shown)
VH: not shown
VL: B11 VL with G30H, G31S, F54Y
- OD450 without competitor [10]: 0.05
- % signal, SSC +/- 50 or 100nM VEGF [11]: 88.2%
- OD450 without competitor [11]: 3.08

B14: 20.49 (Fab, V domains shown)
VH: not shown
VL: DIQMTQSPSSLSASVGDRVTITCRASVDLPKSVSGYVAWYQQKPGKAPKLLIYWGSFLYSGVPSRFSGSGSGTDFTLTISSLQPEDFATYYCQQHFTSPPTFGQGTKVEIKR
- IC50 [15]: 2.6 nM

B15: bH1 Fab (Fab, V domains shown)
VH: not shown
VL: B14 VL with V27Q, L29I, K31R, V33I, F57Y, F96Y, S98T
notes: also called bispecific bH1 Fab
- IC50 [15]: 2.1 nM
- Kd [13]: 59 nM

B16: 35.87 (Fab, V domains shown)
VH: not shown
VL: B14 VL with V27Q, D28N, L29I, T97N
- IC50 [15]: 2.2 nM

B17: 35.21 (Fab, V domains shown)
VH: not shown
VL: B14 VL with V27Q, V33I, T97S
- IC50 [15]: 1.4 nM

B18: 35.45 (Fab, V domains shown)
VH: not shown
VL: B14 VL with V27E, L29I, S32T, T97S
- IC50 [15]: 1.1 nM

B19: 35.95 (Fab, V domains shown)
VH: not shown
VL: B14 VL with S26I, V27E, D28N, F96Y
- IC50 [15]: 4.3 nM

B20: 35.25 (Fab, V domains shown)
VH: not shown
VL: B14 VL with S26I, V27Q, D28K, L29V, K31R, S32T, V33I, S34T, F96Y
- IC50 [15]: 0.4 nM

B21: 20.52 (Fab, V domains shown)
VH: not shown
VL: B14 VL with S26I, V27E, D28N, S32T, V33I, T97S
- IC50 [15]: 3.1 nM

B22: 35.56 (Fab, V domains shown)
VH: not shown
VL: B14 VL with S26V, V27Q, D28N, S32T, V33I, S34T, F96Y, S98I, T101K
- IC50 [15]: 1.7 nM

B23: 35.28 (Fab, V domains shown)
VH: not shown
VL: B14 VL with S26I, V27Q, D28N, L29I, P30A, S32T, V33I, S34T, T97N, T101K
- IC50 [15]: 0.6 nM

B24: 35.2 (Fab, V domains shown)
VH: not shown
VL: B14 VL with S26I, V27E, S32T, F96Y, T97S
- IC50 [15]: 3.5 nM

B25: 20.80 (Fab, V domains shown)
VH: not shown
VL: B14 VL with V27E, L29I, V33I, T97S
- IC50 [15]: 2.2 nM

B26: 20.93 (Fab, V domains shown)
VH: not shown
VL: B14 VL with S26V, V27E, S32T, V33I, S34T, S98T, T101K
- IC50 [15]: 3.8 nM

B27: 35.61 (Fab, V domains shown)
VH: not shown
VL: B14 VL with S26I, V27E, D28N, V33I, S34T, F96Y, T97S, S98T, P99T, T101K
- IC50 [15]: 7.1 nM

B28: 35.74 (Fab, V domains shown)
VH: not shown
VL: B14 VL with S26I, V27Q, L29I, S32T, V33I, S34T, T97N, T101K
- IC50 [15]: 0.7 nM
